Numbering of substitutions follows the chain as printed.
T1: CD20 (UniProt P11836 1-297, limits assumed)
T1 construct: whole, on cells; also called CD20 on CD20+ Ramos cells; antigen
T1 sequence (looked up): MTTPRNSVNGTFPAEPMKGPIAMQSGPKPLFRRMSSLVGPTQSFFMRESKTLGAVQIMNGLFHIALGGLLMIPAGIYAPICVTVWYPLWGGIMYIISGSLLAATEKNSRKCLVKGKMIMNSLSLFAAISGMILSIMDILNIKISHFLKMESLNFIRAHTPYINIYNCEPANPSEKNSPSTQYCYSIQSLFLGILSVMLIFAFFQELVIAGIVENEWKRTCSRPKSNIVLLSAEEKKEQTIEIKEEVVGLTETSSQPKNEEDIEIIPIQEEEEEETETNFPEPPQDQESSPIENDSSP

B1: humanized anti-CD20 antibody 1635 (antibody, human IgG1, V domains shown)
VH: QVQLVQSGAEVKKPGASVKVSCKASGYTFTSYNMHWVRQAPGKGLEWIGAIYPGNGDTSYNQKFKGRVTITADKSTSTAYMELSSLRSEDTAVYYCARSTYYGGDWYFNVWGQGTTVTVSS
VL: DVVMTQSPAFLSVTPGEKVTITCRASSSVSYIHWFQQKPGKAPKPLIYATSNLASGVPSRFSGSGSGTDFTLTINSLEAEDAATYYCQQWTSNPPTFGGGTKVEIK
B2: humanized anti-CD20 antibody 1534 (antibody, human IgG1, V domains shown)
VH: B1 VH with A40P, K74E
VL: B1 VL with P45S
B3: humanized anti-CD20 antibody 1634 (antibody, human IgG1, V domains shown)
VH: B1 VH
VL: B1 VL with P45S
B4: humanized anti-CD20 antibody 3637 (antibody, human IgG1, V domains shown)
VH: B1 VH with N33T, G56S, S59N, Y107N, N109E
VL: B1 VL with N93K
notes: CDR-optimized variant (hVH-2 / hVK-2)
B5: humanized anti-CD20 antibody 1535 (antibody, human IgG1, V domains shown)
VH: B1 VH with A40P, K74E
VL: B1 VL

Experiments:
CD20 [1] = target: T1, CD20; test: FACS on CD20+ Ramos cells (FIG. 12 legend)
Protocol: (§1) The specific binding to CD20 was detected by using CD20+ Ramos cell (ATCC) and T lymphocyte leukemia Jurkat cell (ATCC). Cells were incubated with various concentration of antibodies for 1 hour at 4° C. After washing with PBS for 3 times, 1:100 diluted FITC labeled anti-human Fc γ specific second antibody (The Jakson Laboratory) was added and incubated for 1 h at 4° C. After washing with PBS for three times, specific binding was analyzed by FACS instrument.

CD20 [2] = target: T1, CD20; test: FACS on CD20+ Ramos cells, FITC anti-human Fc gamma second antibody
Protocol: as §1

Row | binding result (CD20 [1]) | binding result (CD20 [2]) | Binder
1 | binds | – | B1
2 | – | binds | B2
3 | – | binds | B3
4 | binds | – | B4
5 | – | binds | B5

Reference: patent US20130089540A1 (BIOEX THERAPEUTICS, published 2013)
